Data: article PMC10499821

biological target: FITC-DYRK1B_(394–409) (human) (UniProt Q9Y463); test: fluorescence polarisation; conditions: not given

Substance | Kd [nM]
Nsp16 (from UniProt P0DTD1 6799-7096) (enzyme) | 3000

biological target: Nsp3 Ubl1 (SARS-CoV-2) (UniProt P0DTD1); test: fluorescence polarisation; conditions: not given

Substance | fold higher KD than NCOA2 (1074–1089) [fold]
N_(216–231) peptide (from UniProt P0DTC9 216-231) | 2

biological target: GST-tagged Nsp3 ADRP (UniProt P0DTD1); test: SPOT array alanine scan; conditions: parent: est. -10; read off a plot

Substance | other: signal change in % [%]
MBOAT1_(16–31) on the SPOT array P22A | -70
MBOAT1_(16–31) on the SPOT array L26A | -45
MBOAT1_(16–31) on the SPOT array E25A | -100
MBOAT1_(16–31) on the SPOT array I29A | -5
MBOAT1_(16–31) on the SPOT array G28A | -50
MBOAT1_(16–31) on the SPOT array L27A | -20
MBOAT1_(16–31) on the SPOT array P30A | -45
MBOAT1_(16–31) on the SPOT array S17A | -25
MBOAT1_(16–31) on the SPOT array L20A | -5
MBOAT1_(16–31) on the SPOT array L23A | -100
MBOAT1_(16–31) on the SPOT array H21A | -55
MBOAT1_(16–31) on the SPOT array G16A | -15
MBOAT1_(16–31) on the SPOT array L31A | -25
MBOAT1_(16–31) on the SPOT array T18A | 10
MBOAT1_(16–31) on the SPOT array Y19A | 30
MBOAT1_(16–31) on the SPOT array S24A | -90

biological target: GST-tagged Nsp16 (UniProt P0DTD1); test: SPOT array alanine scan; conditions: parent: est. 0; read off a plot

Substance | other: signal change in % [%]
ICA1L_(450–465) on the SPOT array D11A | -10
ICA1L_(450–465) on the SPOT array W5A | -100
ICA1L_(450–465) on the SPOT array S3A | -57
ICA1L_(450–465) on the SPOT array S16A | -10
ICA1L_(450–465) on the SPOT array F9A | -88
ICA1L_(450–465) on the SPOT array P14A | -22
ICA1L_(450–465) on the SPOT array F6A | -50
ICA1L_(450–465) on the SPOT array M2A | -57
ICA1L_(450–465) on the SPOT array L15A | -20
ICA1L_(450–465) on the SPOT array L8A | -35
ICA1L_(450–465) on the SPOT array N7A | -48
ICA1L_(450–465) on the SPOT array D1A | -25
ICA1L_(450–465) on the SPOT array L12A | -20

biological target: GST-tagged Nsp3 Ubl1 (UniProt P0DTD1); test: SPOT array alanine scan; conditions: parent: est. 0; read off a plot

Substance | other: signal change in % [%]
NCOA2_(1074–1089) on the SPOT array R1088A | -30
NCOA2_(1074–1089) on the SPOT array L1087A | -40
NCOA2_(1074–1089) on the SPOT array Q1082A | -45
NCOA2_(1074–1089) on the SPOT array E1076A | -40
NCOA2_(1074–1089) on the SPOT array Y1084A | -62
NCOA2_(1074–1089) on the SPOT array L1085A | -50
NCOA2_(1074–1089) on the SPOT array L1080A | -85
NCOA2_(1074–1089) on the SPOT array L1079A | -10
NCOA2_(1074–1089) on the SPOT array S1074A | 0
NCOA2_(1074–1089) on the SPOT array D1075A | -5
NCOA2_(1074–1089) on the SPOT array G1077A | -5
NCOA2_(1074–1089) on the SPOT array N1089A | -25
NCOA2_(1074–1089) on the SPOT array D1081A | -20
NCOA2_(1074–1089) on the SPOT array L1083A | -35
